Experimental data taken from article PMC12912723.

Target: PscF from strain PAO1 (Pseudomonas aeruginosa) (UniProt P95434)
Assay: ELISA; competition with biotinylated P1D8

IC50: 0.01 µg/mL
Substance: P1D8 (human anti-PscF monoclonal antibody) (from UniProt P01857)
